Source: paper PMC10530332

Key:
[1] = molecular target: natural nurse shark UrIg (nurse shark (Ginglymostoma cirratum) (endogenous in nurse shark tissues)); assay: non-reducing SDS-PAGE with western blot
[2] = molecular target: recombinant UrIg, 4-domain molecule (V-C1-C2-C3) with C-terminal His tag (nurse shark (Ginglymostoma cirratum)); assay: SEC
[3] = molecular target: recombinant UrIg, 4-domain molecule (V-C1-C2-C3) with C-terminal His tag (nurse shark (Ginglymostoma cirratum)); assay: SDS-PAGE, non-reducing against reducing

stoichiometry N [1] | stoichiometry N [2] | stoichiometry N [3] | Substance
2 |  |  | natural nurse shark UrIg (natural protein)
 | 2 | 2 | recombinant UrIg, 4-domain molecule (V-C1-C2-C3) with C-terminal His tag (natural protein)
